# B1: soluble human VEGF receptor KDR-1N-Fc (Fc fusion)
# chain: ASVGLPSVSLDLPRLSIQKDILTIKANTTLQITCRGQRDLDWLWPNNQSGSEQRVEVTECSDGLFCKTLTIPKVIGNDTGAYKCFYRETDLASVIYVYVQDYRS
# notes: not shown: linker #1 (6 residues)
# Target: ^125I-labeled human VEGF (human, UniProt P15692-4 27-191, limits assumed, 125I-labeled)
# Assay: competition against ^125I-VEGF (4 ng/ml) binding to coated KDR-7N-Fc
# Description: Methanol was dispensed in 100 μl portions into wells of a 96-well Immobilon™-P Filtration Plate (manufactured by Millipore) to give hydrophilic nature to the PVDF membrane on the bottom of the plate. […] After washing, PBS containing 1% bovine serum albumin (BSA) was added in 200 μl/well portions and the reaction was carried out at room temperature for 30 minutes to block the remaining active residues.
# Sequence of ^125I-labeled human VEGF (P15692 other isoform, or with tags, fused parts or gaps limits assumed): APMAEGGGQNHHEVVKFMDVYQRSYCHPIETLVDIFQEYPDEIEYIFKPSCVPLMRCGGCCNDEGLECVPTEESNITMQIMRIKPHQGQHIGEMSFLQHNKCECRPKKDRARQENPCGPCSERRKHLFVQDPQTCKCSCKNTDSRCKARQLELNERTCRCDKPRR
binder,measurement,value
B1,binding result,no binding

# Reference: patent US20030175271A1 (Kyowa Kirin, published 2003)
